Assay results taken from publication PMC3017772, “The CaaX specificities of Arabidopsis protein prenyltransferases explain era1 and ggb phenotypes” (BMC Plant Biology, 2010).

B1: PFT (protein farnesyltransferase; PLP + ERA1) (Arabidopsis thaliana) (protein)
chain 1: PVVTRLIRLKCVGLRLDRSGLNRRICHGGHGESTRRRVMEELSSLTVSQREQFLVENDVFGIYNYFDASDVSTQKYMMEIQRDKQLDYLMKGLRQLGPQFSSLDANRPWLCYWILHSIALLGETVDDELESNAIDFLGRCQGSEGGYGGGPGQLPHLATTYAAVNALVTLGGDKALSSINREKMSCFLRRMKDTSGGFRMHDMGEMDVRACYTAISVASILNIMDDELTQGLGDYILSCQTYEGGIGGEPGSEAHGGYTYCGLAAMILINEVDRLNLDSLMNWAVHRQGVEMGFQGRTNKLVDGCYTFWQAAPCVLLQRLYSTNDHDVHGSSHISEGTNEEHHAHDEDDLEDSDDDDDSDEDNDEDSVNGHRIHHTSTYINRRMQLVFDSLGLQRYVLLCSKIPDGGFRDKPRKPRDFYHTCYCLSGLSVAQHAWLKDEDTPPLTRDIMGGYSNLLEPVQLLHNIVMDQYNEAIEFFFKAA
chain 2: not shown
notes: alpha/beta heterodimer co-expressed in E. coli Rosetta (pETDuet-1); N-terminal FLAG on PLP, N-terminal 6xHis on ERA1 (MHHHHHH-PVVTRLI from primer), tags kept; Co2+-IMAC purified
B2: PGGT1 (protein geranylgeranyltransferase type 1; PGGT I; PLP + GGB) (Arabidopsis thaliana) (protein)
chain 1: SETAVSIDSDRSKSEEEDEEEYSPPVQSSPSANFEKDRHLMYLEMMYELLPYHYQSQEINRLTLAHFIISGLHFLGARDRVDKDVVAKWVLSFQAFPTNRVSLKDGEFYGFFGSRSSQFPIDENGDLKHNGSHLASTYCALAILKVIGHDLSTIDSKSLLISMINLQQDDGSFMPIHIGGETDLRFVYCAAAICYMLDSWSGMDKESAKNYILNCQSYDGGFGLIPGSESHGGATYCAIASLRLMGYIGVDLLSNDSSSSIIDPSLLLNWCLQRQANDGGFQGRTNKPSDTCYAFWIGAVLKLIGGDALIDKMALRKFLMSCQSKYGGFSKFPGQLPDLYHSYYGYTAFSLLEEQGLSPLCPELGLPLLAAPGI
chain 2: not shown
notes: alpha/beta heterodimer co-expressed in E. coli Rosetta (pETDuet-1); N-terminal FLAG on PLP, N-terminal 6xHis on GGB (MHHHHHH-SETAVSI from primer), tags kept; Co2+-IMAC purified

Experiments:
Test in all cases: radiometric filter prenylation assay, Lineweaver-Burk
Assay type in all cases: biochemical, Arabidopsis thaliana
[1] = substrate: CC(C)=CCC/C(C)=C/CC/C(C)=C/CO[P@@](=O)(O)OP(=O)(O)O; conditions: co-substrate GFP-BD-CVIQ, 50 mM Hepes pH 7.5, 20 mM MgCl2, 5 mM ZnCl2, 5 mM DTT, 0.1% Zwittergent, 30°C, labelled compound
Source text: (§1) radiometric filter prenylation assay, Lineweaver-Burk on PFT (protein farnesyltransferase; PLP + ERA1)

[2] = substrate: CC(C)=CCC/C(C)=C/CC/C(C)=C/CC/C(C)=C/COP(=O)(O)OP(=O)(O)O; conditions: co-substrate GFP-BD-CVIQ, 50 mM Hepes pH 7.5, 20 mM MgCl2, 5 mM ZnCl2, 5 mM DTT, 0.1% Zwittergent, 30°C, labelled compound
Source text: as §1

[3] = substrate: CC(C)=CCC/C(C)=C/CC/C(C)=C/CO[P@@](=O)(O)OP(=O)(O)O; conditions: co-substrate GFP-BD-CVIL, 50 mM Hepes pH 7.5, 20 mM MgCl2, 5 mM ZnCl2, 5 mM DTT, 0.1% Zwittergent, 30°C, labelled compound
Source text: (§2) radiometric filter prenylation assay, Lineweaver-Burk on PGGT1 (protein geranylgeranyltransferase type 1; PGGT I; PLP + GGB)

[4] = substrate: CC(C)=CCC/C(C)=C/CC/C(C)=C/CC/C(C)=C/COP(=O)(O)OP(=O)(O)O; conditions: co-substrate GFP-BD-CVIL, 50 mM Hepes pH 7.5, 20 mM MgCl2, 5 mM ZnCl2, 5 mM DTT, 0.1% Zwittergent, 30°C, labelled compound
Source text: as §2

Protein | Km [1] [µM] | Km [2] [µM] | Km [3] [µM] | Km [4] [µM]
B1 | 0.2 ± 0.1 | 0.7 ± 0.3 |  | 
B2 |  |  | 0.6 ± 0.5 | 0.8 ± 0.1
